In article PMC13050799:

Assays:
[1] = dual luciferase reporter, HEPM; conditions: glycan lost; control: MEIS2-WT in shOGT HEPM cells
[2] = anti-MEIS2 or anti-HA IP, ubiquitin blot; conditions: control: DMSO
[3] = Western blot of MEIS2 ± MG132, HEPM; conditions: glycan lost; control: DMSO
[4] = CHX chase, immunoblot, endogenous MEIS2 in HEPM; conditions: control: DMSO

B1: MEIS2: S237A (protein)
parent chain: MAQRYDELPHYGGMDGVGVPASMYGDPHAPRPIPPVHHLNHGPPLHATQHYGAHAPHPNVMPASMGSAVNDALKRDKDAIYGHPLFPLLALVFEKCELATCTPREPGVAGGDVCSSDSFNEDIAVFAKQVRAEKPLFSSNPELDNLMIQAIQVLRFHLLELEKVHELCDNFCHRYISCLKGKMPIDLVIDERDGSSKSDHEELSGSSTNLADHNPSSWRDHDDATSTHSAGTPGPSSGGHASQSGDNSSEQGDGLDNSVASPGTGDDDDPDKDKKRQKKRGIFPKVATNIMRAWLFQHLTHPYPSEEQKKQLAQDTGLTILQVNNWFINARRRIVQPMIDQSNRAGFLLDPSVSQGAAYSPEGQPMGSFVLDGQQHMGIRPAGLQSMPGDYVSQGGPMGMSMAQPSYTPPQMTPHPTQLRHGPPMHSYLPSHPHHPAMMMHGGPPTHPGMTMSAQSPTMLNSVDPNVGGQVMDIHAQ
other: transcriptional activation of promoter [1]: decreases

B2: MEIS2: OSMI-1 (protein)
parent chain: MAQRYDELPHYGGMDGVGVPASMYGDPHAPRPIPPVHHLNHGPPLHATQHYGAHAPHPNVMPASMGSAVNDALKRDKDAIYGHPLFPLLALVFEKCELATCTPREPGVAGGDVCSSDSFNEDIAVFAKQVRAEKPLFSSNPELDNLMIQAIQVLRFHLLELEKVHELCDNFCHRYISCLKGKMPIDLVIDERDGSSKSDHEELSGSSTNLADHNPSSWRDHDDATSTHSAGTPGPSSGGHASQSGDNSSEQGDGLDNSVASPGTGDDDDPDKDKKRQKKRGIFPKVATNIMRAWLFQHLTHPYPSEEQKKQLAQDTGLTILQVNNWFINARRRIVQPMIDQSNRAGFLLDPSVSQGAAYSPEGQPMGSFVLDGQQHMGIRPAGLQSMPGDYVSQGGPMGMSMAQPSYTPPQMTPHPTQLRHGPPMHSYLPSHPHHPAMMMHGGPPTHPGMTMSAQSPTMLNSVDPNVGGQVMDIHAQ
other: ubiquitination ([2]; glycan lost): increases | expression_or_secretion [3]: decreases | degradation_or_half_life ([4]; glycan lost): decreases

B3: MEIS2: Thiamet G (protein)
parent chain: MAQRYDELPHYGGMDGVGVPASMYGDPHAPRPIPPVHHLNHGPPLHATQHYGAHAPHPNVMPASMGSAVNDALKRDKDAIYGHPLFPLLALVFEKCELATCTPREPGVAGGDVCSSDSFNEDIAVFAKQVRAEKPLFSSNPELDNLMIQAIQVLRFHLLELEKVHELCDNFCHRYISCLKGKMPIDLVIDERDGSSKSDHEELSGSSTNLADHNPSSWRDHDDATSTHSAGTPGPSSGGHASQSGDNSSEQGDGLDNSVASPGTGDDDDPDKDKKRQKKRGIFPKVATNIMRAWLFQHLTHPYPSEEQKKQLAQDTGLTILQVNNWFINARRRIVQPMIDQSNRAGFLLDPSVSQGAAYSPEGQPMGSFVLDGQQHMGIRPAGLQSMPGDYVSQGGPMGMSMAQPSYTPPQMTPHPTQLRHGPPMHSYLPSHPHHPAMMMHGGPPTHPGMTMSAQSPTMLNSVDPNVGGQVMDIHAQ
other: ubiquitination ([2]; glycan gained): decreases | degradation_or_half_life ([4]; glycan gained): increases
